Laboratory results: the supplement of paper PMC5998384

Legend:
[1] = tested on: HeLa Kyoto; assay: solubility in G1/S (NP-40 vs SDS abundance) (log2 ratio); higher = more soluble; details: cell cycle stage: G1/S
[2] = tested on: HeLa Kyoto; assay: thermal stability score vs G1/S (z-score of summed log2 fold changes over temperatures); higher = more thermally stable than in G1/S
[3] = tested on: HeLa Kyoto; assay: solubility change mitosis vs G1/S (difference of NP-40 vs SDS log2 ratios) (log2 ratio difference); higher = more soluble in mitosis
[4] = tested on: HeLa Kyoto; assay: melting temperature (median over replicates), in situ; higher = more thermally stable
[5] = cell cycle stage: early G1 (4.5 h after nocodazole release)
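For melting temperature (median over replicates), in situ in this document: HeLa Kyoto cells synchronized by double thymidine or nocodazole block, proteins quantified by TMT10plex mass spectrometry, three independent biological replicates.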
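For solubility change mitosis vs G1/S (difference of NP-40 vs SDS log2 ratios) in this document: synchronized HeLa Kyoto cells (double thymidine block for G1/S, nocodazole release for mitosis), protein amounts in NP-40 versus SDS lysates quantified by mass spectrometry, three biological replicates.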
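For solubility in G1/S (NP-40 vs SDS abundance) in this document: HeLa Kyoto cells arrested at G1/S by double thymidine block, proteins quantified by TMT10plex mass spectrometry in mild NP-40 versus SDS extracts, three biological replicates.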
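For thermal stability score vs G1/S (z-score of summed log2 fold changes over temperatures) in this document: synchronized HeLa Kyoto cells, proteins quantified by TMT10plex mass spectrometry, three biological replicates, mitosis taken 0.5 h after nocodazole release, G1/S directly after double thymidine block.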

Row | Sequence | solubility in G1/S (log2) [1] | thermal stability score [2, 5] | thermal stability score ([2]; cell cycle stage: mitosis) | solubility change mitosis (log2) [3] | melting temperature ([4]; cell cycle stage: G1/S) | melting temperature ([4]; cell cycle stage: mitosis)
1 | MASGAGGVGGGGGGKIRTRRCHQGPIKPYQQGRQQHQGILSRVTESVKNIVPGWLQRYFNKNEDVCSCSTDTSEVPRWPENKEDHLVYADEESSNITDGRITPEPAVSNTEEPSTTSTASNYPDVLTRPSLHRSHLNFSMLESPALHCQPSTSSAFPIGSSGFSLVKEIKDSTSQHDDDNISTTSGFSSRASDKDITVSKNTSLPPLWSPEAERSHSLSQHTATSSKKPAFNLSAFGTLSPSLGNSSILKTSQLGDSPFYPGKTTYGGAAAAVRQSKLRNTPYQAPVRRQMKAKQLSAQSYGVTSSTARRILQSLEKMSSPLADAKRIPSIVSSPLNSPLDRSGIDITDFQAKREKVDSQYPPVQRLMTPKPVSIATNRSVYFKPSLTPSGEFRKTNQRIDNKCSTGYEKNMTPGQNREQRESGFSYPNFSLPAANGLSSGVGGGGGKMRRERTRFVASKPLEEEEMEVPVLPKISLPITSSSLPTFNFSSPEITTSSPSPINSSQALTNKVQMTSPSSTGSPMFKFSSPIVKSTEANVLPPSSIGFTFSVPVAKTAELSGSSSTLEPIISSSAHHVTTVNSTNCKKTPPEDCEGPFRPAEILKEGSVLDILKSPGFASPKIDSVAAQPTATSPVVYTRPAISSFSSSGIGFGESLKAGSSWQCDTCLLQNKVTDNKCIACQAAKLSPRDTAKQTGIETPNKSGKTTLSASGTGFGDKFKPVIGTWDCDTCLVQNKPEAIKCVACETPKPGTCVKRALTLTVVSESAETMTASSSSCTVTTGTLGFGDKFKRPIGSWECSVCCVSNNAEDNKCVSCMSEKPGSSVPASSSSTVPVSLPSGGSLGLEKFKKPEGSWDCELCLVQNKADSTKCLACESAKPGTKSGFKGFDTSSSSSNSAASSSFKFGVSSSSSGPSQTLTSTGNFKFGDQGGFKIGVSSDSGSINPMSEGFKFSKPIGDFKFGVSSESKPEEVKKDSKNDNFKFGLSSGLSNPVSLTPFQFGVSNLGQEEKKEELPKSSSAGFSFGTGVINSTPAPANTIVTSENKSSFNLGTIETKSASVAPFTCKTSEAKKEEMPATKGGFSFGNVEPASLPSASVFVLGRTEEKQQEPVTSTSLVFGKKADNEEPKCQPVFSFGNSEQTKDENSSKSTFSFSMTKPSEKESEQPAKATFAFGAQTSTTADQGAAKPVFSFLNNSSSSSSTPATSAGGGIFGSSTSSSNPPVATFVFGQSSNPVSSSAFGNTAESSTSQSLLFSQDSKLATTSSTGTAVTPFVFGPGASSNNTTTSGFGFGATTTSSSAGSSFVFGTGPSAPSASPAFGANQTPTFGQSQGASQPNPPGFGSISSSTALFPTGSQPAPPTFGTVSSSSQPPVFGQQPSQSAFGSGTTPNSSSAFQFGSSTTNFNFTNNSPSGVFTFGANSSTPAASAQPSGSGGFPFNQSPAAFTVGSNGKNVFSSSGTSFSGRKIKTAVRRRK [NUP153] | -0.682 | -5.41 | -3.58 | 0.507 | 52.8 °C | 52.6 °C
2 | MASGGSGGVSVPALWSEVNRYGQNGDFTRALKTVNKILQINKDDVTALHCKVVCLIQNGSFKEALNVINTHTKVLANNSLSFEKAYCEYRLNRIENALKTIESANQQTDKLKELYGQVLYRLERYDECLAVYRDLVRNSQDDYDEERKTNLSAVVAAQSNWEKVVPENLGLQEGTHELCYNTACALIGQGQLNQAMKILQKAEDLCRRSLSEDTDGTEEDPQAELAIIHGQMAYILQLQGRTEEALQLYNQIIKLKPTDVGLLAVIANNIITINKDQNVFDSKKKVKLTNAEGVEFKLSKKQLQAIEFNKALLAMYTNQAEQCRKISASLQSQSPEHLLPVLIQAAQLCREKQHTKAIELLQEFSDQHPENAAEIKLTMAQLKISQGNISKACLILRSIEELKHKPGMVSALVTMYSHEEDIDSAIEVFTQAIQWYQNHQPKSPAHLSLIREAANFKLKYGRKKEAISDLQQLWKQNPKDIHTLAQLISAYSLVDPEKAKALSKHLPSSDSMSLKVDVEALENSAGATYIRKKGGKVTGDSQPKEQGQGDLKKKKKKKKGKLPKNYDPKVTPDPERWLPMRERSYYRGRKKGKKKDQIGKGTQGATAGASSELDASKTVSSPPTSPRPGSAATVSASTSNIIPPRHQKPAGAPATKKKQQQKKKKGGKGGW [SRP72] | -0.278 | -0.0233 | 0.35 | 0.328 | 50.5 °C | 49.7 °C
3 | MASGRDERPPWRLGRLLLLMCLLLLGSSARAAHIKKAEATTTTTSAGAEAAEGQFDRYYHEEELESALREAAAAGLPGLARLFSIGRSVEGRPLWVLRLTAGLGSLIPEGDAGPDAAGPDAAGPLLPGRPQVKLVGNMHGDETVSRQVLIYLARELAAGYRRGDPRLVRLLNTTDVYLLPSLNPDGFERAREGDCGFGDGGPSGASGRDNSRGRDLNRSFPDQFSTGEPPALDEVPEVRALIEWIRRNKFVLSGNLHGGSVVASYPFDDSPEHKATGIYSKTSDDEVFKYLAKAYASNHPIMKTGEPHCPGDEDETFKDGITNGAHWYDVEGGMQDYNYVWANCFEITLELSCCKYPPASQLRQEWENNRESLITLIEKVHIGVKGFVKDSITGSGLENATISVAGINHNITTGRFGDFYRLLVPGTYNLTVVLTGYMPLTVTNVVVKEGPATEVDFSLRPTVTSVIPDTTEAVSTASTVAIPNILSGTSSSYQPIQPKDFHHHHFPDMEIFLRRFANEYPNITRLYSLGKSVESRELYVMEISDNPGVHEPGEPEFKYIGNMHGNEVVGRELLLNLIEYLCKNFGTDPEVTDLVHNTRIHLMPSMNPDGYEKSQEGDSISVIGRNNSNNFDLNRNFPDQFVQITDPTQPETIAVMSWMKSYPFVLSANLHGGSLVVNYPFDDDEQGLATYSKSPDDAVFQQIALSYSKENSQMFQGRPCKNMYPNEYFPHGITNGASWYNVPGGMQDWNYLQTNCFEVTIELGCVKYPLEKELPNFWEQNRRSLIQFMKQVHQGVRGFVLDATDGRGILNATISVAEINHPVTTYKTGDYWRLLVPGTYKITASARGYNPVTKNVTVKSEGAIQVNFTLVRSSTDSNNESKKGKGASSSTNDASDPTTKEFETLIKDLSAENGLESLMLRSSSNLALALYRYHSYKDLSEFLRGLVMNYPHITNLTNLGQSTEYRHIWSLEISNKPNVSEPEEPKIRFVAGIHGNAPVGTELLLALAEFLCLNYKKNPAVTQLVDRTRIVIVPSLNPDGRERAQEKDCTSKIGQTNARGKDLDTDFTNNASQPETKAIIENLIQKQDFSLSVALDGGSMLVTYPYDKPVQTVENKETLKHLASLYANNHPSMHMGQPSCPNKSDENIPGGVMRGAEWHSHLGSMKDYSVTYGHCPEITVYTSCCYFPSAARLPSLWADNKRSLLSMLVEVHKGVHGFVKDKTGKPISKAVIVLNEGIKVQTKEGGYFHVLLAPGVHNIIAIADGYQQQHSQVFVHHDAASSVVIVFDTDNRIFGLPRELVVTVSGATMSALILTACIIWCICSIKSNRHKDGFHRLRQHHDEYEDEIRMMSTGSKKSLLSHEFQDETDTEEETLYSSKH [CPD] | 0.211 | -2.91 | -3.88 | -0.0862 | 55.5 °C | 53.8 °C
4 | MASGRRAPRTGLLELRAGAGSGAGGERWQRVLLSLAEDVLTVSPADGDPGPEPGAPREQEPAQLNGAAEPGAGPPQLPEALLLQRRRVTVRKADAGGLGISIKGGRENKMPILISKIFKGLAADQTEALFVGDAILSVNGEDLSSATHDEAVQVLKKTGKEVVLEVKYMKDVSPYFKNSTGGTSVGWDSPPASPLQRQPSSPGPTPRNFSEAKHMSLKMAYVSKRCTPNDPEPRYLEICSADGQDTLFLRAKDEASARSWATAIQAQVNTLTPRVKDELQALLAATSTAGSQDIKQIGWLTEQLPSGGTAPTLALLTEKELLLYLSLPETREALSRPARTAPLIATRLVHSGPSKGSVPYDAELSFALRTGTRHGVDTHLFSVESPQELAAWTRQLVDGCHRAAEGVQEVSTACTWNGRPCSLSVHIDKGFTLWAAEPGAARAVLLRQPFEKLQMSSDDGASLLFLDFGGAEGEIQLDLHSCPKTIVFIIHSFLSAKVTRLGLLA [SNTA1] | 0.0927 | -0.161 | 0.249 | -0.136 | 51.2 °C | 49.2 °C
5 | MASGSGDSVTRRSVASQFFTQEEGPGIDGMTTSERVVDLLNQAALITNDSKITVLKQVQELIINKDPTLLDNFLDEIIAFQADKSIEVRKFVIGFIEEACKRDIELLLKLIANLNMLLRDENVNVVKKAILTMTQLYKVALQWMVKSRVISELQEACWDMVSAMAGDIILLLDSDNDGIRTHAIKFVEGLIVTLSPRMADSEIPRRQEHDISLDRIPRDHPYIQYNVLWEEGKAALEQLLKFMVHPAISSINLTTALGSLANIARQRPMFMSEVIQAYETLHANLPPTLAKSQVSSVRKNLKLHLLSVLKHPASLEFQAQITTLLVDLGTPQAEIARNMPSSKDTRKRPRDDSDSTLKKMKLEPNLGEDDEDKDLEPGPSGTSKASAQISGQSDTDITAEFLQPLLTPDNVANLVLISMVYLPEAMPASFQAIYTPVESAGTEAQIKHLARLMATQMTAAGLGPGVEQTKQCKEEPKEEKVVKTESVLIKRRLSAQGQAISVVGSLSSMSPLEEEAPQAKRRPEPIIPVTQPRLAGAGGRKKIFRLSDVLKPLTDAQVEAMKLGAVKRILRAEKAVACSGAAQVRIKILASLVTQFNSGLKAEVLSFILEDVRARLDLAFAWLYQEYNAYLAAGASGSLDKYEDCLIRLLSGLQEKPDQKDGIFTKVVLEAPLITESALEVVRKYCEDESRTYLGMSTLRDLIFKRPSRQFQYLHVLLDLSSHEKDKVRSQALLFIKRMYEKEQLREYVEKFALNYLQLLVHPNPPSVLFGADKDTEVAAPWTEETVKQCLYLYLALLPQNHKLIHELAAVYTEAIADIKRTVLRVIEQPIRGMGMNSPELLLLVENCPKGAETLVTRCLHSLTDKVPPSPELVKRVRDLYHKRLPDVRFLIPVLNGLEKKEVIQALPKLIKLNPIVVKEVFNRLLGTQHGEGNSALSPLNPGELLIALHNIDSVKCDMKSIIKATNLCFAERNVYTSEVLAVVMQQLMEQSPLPMLLMRTVIQSLTMYPRLGGFVMNILSRLIMKQVWKYPKVWEGFIKCCQRTKPQSFQVILQLPPQQLGAVFDKCPELREPLLAHVRSFTPHQQAHIPNSIMTILEASGKQEPEAKEAPAGPLEEDDLEPLTLAPAPAPRPPQDLIGLRLAQEKALKRQLEEEQKLKPGGVGAPSSSSPSPSPSARPGPPPSEEAMDFREEGPECETPGIFISMDDDSGLTEAALLDSSLEGPLPKETAAGGLTLKEERSPQTLAPVGEDAMKTPSPAAEDAREPEAKGNS [SYMPK] | 0.0291 | 1.75 | 4.2 | -0.0648 | 48.1 °C | 49.1 °C
6 | MASGTTTTAVKIGIIGGTGLDDPEILEGRTEKYVDTPFGKPSDALILGKIKNVDCVLLARHGRQHTIMPSKVNYQANIWALKEEGCTHVIVTTACGSLREEIQPGDIVIIDQFIDRTTMRPQSFYDGSHSCARGVCHIPMAEPFCPKTREVLIETAKKLGLRCHSKGTMVTIEGPRFSSRAESFMFRTWGADVINMTTVPEVVLAKEAGICYASIAMATDYDCWKEHEEAVSVDRVLKTLKENANKAKSLLLTTIPQIGSTEWSETLHNLKNMAQFSVLLPRH [MTAP] | 0.254 | -1.8 | -2.68 | -0.0344 | 60 °C | 60.5 °C
7 | MASILRSPQALQLTLALIKPDAVAHPLILEAVHQQILSNKFLIVRMRELLWRKEDCQRFYREHEGRFFYQRLVEFMASGPIRAYILAHKDAIQLWRTLMGPTRVFRARHVAPDSIRGSFGLTDTRNTTHGSDSVVSASREIAAFFPDFSEQRWYEEEEPQLRCGPVCYSPEGGVHYVAGTGGLGPA [NME6] | 0.31 | -2.16 | -1.08 | 0.636 | 51.3 °C | 55.2 °C
